T1: C-terminal cleavage fragment (UPA) of NLRP1-FIIND (human, UniProt Q9C000 1213-1376)
T1 construct: NLRP1, human, isoform 1; from the autolytic cleavage site (S1213) to the end of the FIIND construct (1376); source: Sf9 insect cells, purified; arises by autoproteolysis of the FIIND construct
T1 sequence (looked up): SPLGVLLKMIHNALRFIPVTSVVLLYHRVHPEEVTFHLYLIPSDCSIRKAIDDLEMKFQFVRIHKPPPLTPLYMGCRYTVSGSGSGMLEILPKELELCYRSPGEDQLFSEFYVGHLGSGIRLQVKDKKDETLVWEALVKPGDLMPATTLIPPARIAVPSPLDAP


Key:
[1] = biological target: T1, C-terminal cleavage fragment (UPA) of …; assay: SEC; purified FIIND proteins after removal of GST by TEV, Superose 6 increase (10/300) GL, 0.5 ml/min; fractions checked by SDS-PAGE; conditions: both partners purified
[2] = biological target: the molecule itself; assay: as above
[3] = biological target: T2, Intracellularly biotinylated Avi-His6-tev-DPP9 (UniProt Q86TI2 1-863, biotin (on the Avi tag)); assay: SPR; biotinylated Avi-His6-tev-DPP9 immobilised on a Series S SA chip (Biacore 8K); monomeric fraction of FIIND proteins (or GST) injected, single-cycle kinetics, 78.125-5000 nM (S1213A from 39.06 nM), 10 mM Hepes pH 7.5, 150 mM NaCl, 0.5 mM TCEP, 0.05% Tween-20; conditions: both partners purified
T2 construct: dipeptidyl peptidase 9 (DPP9); also called biotin-DPP9; immobilized DPP9; source: Sf9 insect cells, intracellularly biotinylated, purified; not shown: Avi, N-terminal, kept; His6, N-terminal, kept
T2 sequence (Q86TI2 whole entry): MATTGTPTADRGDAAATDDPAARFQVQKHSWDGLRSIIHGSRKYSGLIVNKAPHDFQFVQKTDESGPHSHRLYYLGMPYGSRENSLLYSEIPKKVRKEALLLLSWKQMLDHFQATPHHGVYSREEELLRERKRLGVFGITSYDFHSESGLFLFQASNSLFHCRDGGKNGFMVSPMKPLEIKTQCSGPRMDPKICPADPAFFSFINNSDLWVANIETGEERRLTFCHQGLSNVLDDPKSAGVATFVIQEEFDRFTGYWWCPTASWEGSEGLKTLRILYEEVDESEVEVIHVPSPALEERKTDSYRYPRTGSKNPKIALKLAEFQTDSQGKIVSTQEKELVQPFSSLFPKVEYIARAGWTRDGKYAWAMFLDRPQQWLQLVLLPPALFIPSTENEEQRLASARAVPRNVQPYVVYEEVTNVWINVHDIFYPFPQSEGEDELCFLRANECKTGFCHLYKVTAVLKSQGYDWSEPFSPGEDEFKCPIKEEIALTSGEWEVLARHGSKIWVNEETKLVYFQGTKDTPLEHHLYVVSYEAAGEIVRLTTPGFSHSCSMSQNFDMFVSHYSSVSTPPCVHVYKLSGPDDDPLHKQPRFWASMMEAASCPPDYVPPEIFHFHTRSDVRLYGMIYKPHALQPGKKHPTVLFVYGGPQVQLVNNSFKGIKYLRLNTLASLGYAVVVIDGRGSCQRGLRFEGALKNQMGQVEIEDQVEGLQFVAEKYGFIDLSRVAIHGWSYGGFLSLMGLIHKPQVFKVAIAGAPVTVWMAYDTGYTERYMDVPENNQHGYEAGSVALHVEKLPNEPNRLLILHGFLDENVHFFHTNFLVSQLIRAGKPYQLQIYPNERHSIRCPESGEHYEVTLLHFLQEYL

| Binder | binding result [1] | binding result [2] | Kd [3] [µM] |
| --- | --- | --- | --- |
| N-terminal cleavage fragment (ZU5) of NLRP1-FIIND wt (domain or fragment, human, UniProt Q9C000 1064-1212, looked up, NLRP1, human, isoform 1; from the start of the FIIND construct (1064) to the autolytic cleavage site (peptide bond F1212-S1213); source: Sf9 insect cells, purified; arises by autoproteolysis of the FIIND construct; not shown: GST, N-terminal, cleaved) SQGDLHTKPLGTDDDFWGPTGPVATEVVDKEKNLYRVHFPVAGSYRWPNTGLCFVMREAVTVEIEFCVWDQFLGEINPQHSWMVAGPLLDIKAEPGAVEAVHLPHFVALQGGHVDTSLFQMAHFKEEGMLLEKPARVELHHIVLENPSF | binds |  |  |
| N-terminal cleavage fragment (ZU5) of NLRP1-FIIND M1184V (domain or fragment, human, UniProt Q9C000 1064-1212, looked up, NLRP1, human, isoform 1, natural variant M1184V; from the start of the FIIND construct (1064) to the autolytic cleavage site (peptide bond F1212-S1213); source: Sf9 insect cells, purified; arises by autoproteolysis of the FIIND construct; not shown: GST, N-terminal, cleaved) SQGDLHTKPLGTDDDFWGPTGPVATEVVDKEKNLYRVHFPVAGSYRWPNTGLCFVMREAVTVEIEFCVWDQFLGEINPQHSWMVAGPLLDIKAEPGAVEAVHLPHFVALQGGHVDTSLFQVAHFKEEGMLLEKPARVELHHIVLENPSF | binds |  |  |
| NLRP1-FIIND (wt) (domain or fragment, human, UniProt Q9C000 1064-1376, looked up, NLRP1 FIIND domain (ZU5-UPA), human, residues 1064-1376 of isoform 1; GST is still on the protein during the GST pull-down of the co-expression experiments and is cut off by TEV before SEC, SEC-MALS and SPR; also called wt FIIND protein; NLRP1 FIIND domain; source: also co-expressed with His6-DPP9 and SUMO-UPA in Sf9; not shown: GST, N-terminal, cleaved) SQGDLHTKPLGTDDDFWGPTGPVATEVVDKEKNLYRVHFPVAGSYRWPNTGLCFVMREAVTVEIEFCVWDQFLGEINPQHSWMVAGPLLDIKAEPGAVEAVHLPHFVALQGGHVDTSLFQMAHFKEEGMLLEKPARVELHHIVLENPSFSPLGVLLKMIHNALRFIPVTSVVLLYHRVHPEEVTFHLYLIPSDCSIRKAIDDLEMKFQFVRIHKPPPLTPLYMGCRYTVSGSGSGMLEILPKELELCYRSPGEDQLFSEFYVGHLGSGIRLQVKDKKDETLVWEALVKPGDLMPATTLIPPARIAVPSPLDAP |  | binds | 1.9 |
| NLRP1-FIIND (M1184V S1213A) (domain or fragment, human, UniProt Q9C000 1064-1376, looked up, NLRP1 FIIND domain, human, residues 1064-1376 of isoform 1, M1184V and S1213A; Uncleaved single chain; GST kept during the GST pull-down of the co-expression, cut off by TEV afterwards; also called cleavage-deficient FIIND mutant (M1184V–S1213A); source: also co-expressed with His6-DPP9 in Sf9; not shown: GST, N-terminal, cleaved) SQGDLHTKPLGTDDDFWGPTGPVATEVVDKEKNLYRVHFPVAGSYRWPNTGLCFVMREAVTVEIEFCVWDQFLGEINPQHSWMVAGPLLDIKAEPGAVEAVHLPHFVALQGGHVDTSLFQVAHFKEEGMLLEKPARVELHHIVLENPSFAPLGVLLKMIHNALRFIPVTSVVLLYHRVHPEEVTFHLYLIPSDCSIRKAIDDLEMKFQFVRIHKPPPLTPLYMGCRYTVSGSGSGMLEILPKELELCYRSPGEDQLFSEFYVGHLGSGIRLQVKDKKDETLVWEALVKPGDLMPATTLIPPARIAVPSPLDAP |  |  | 2.9 |
| NLRP1-FIIND (S1213A) (domain or fragment, human, UniProt Q9C000 1064-1376, looked up, NLRP1 FIIND domain, human, residues 1064-1376 of isoform 1, S1213A (no autoproteolysis); Uncleaved single chain; also called autoproteolysis-deficient NLRP1-FIIND; not shown: GST, N-terminal, cleaved) SQGDLHTKPLGTDDDFWGPTGPVATEVVDKEKNLYRVHFPVAGSYRWPNTGLCFVMREAVTVEIEFCVWDQFLGEINPQHSWMVAGPLLDIKAEPGAVEAVHLPHFVALQGGHVDTSLFQMAHFKEEGMLLEKPARVELHHIVLENPSFAPLGVLLKMIHNALRFIPVTSVVLLYHRVHPEEVTFHLYLIPSDCSIRKAIDDLEMKFQFVRIHKPPPLTPLYMGCRYTVSGSGSGMLEILPKELELCYRSPGEDQLFSEFYVGHLGSGIRLQVKDKKDETLVWEALVKPGDLMPATTLIPPARIAVPSPLDAP |  | binds | 1.55 |
| NLRP1-FIIND (P1214R) (domain or fragment, human, UniProt Q9C000 1064-1376, looked up, NLRP1 FIIND domain, human, residues 1064-1376 of isoform 1, patient mutation P1214R; not shown: GST, N-terminal, cleaved) SQGDLHTKPLGTDDDFWGPTGPVATEVVDKEKNLYRVHFPVAGSYRWPNTGLCFVMREAVTVEIEFCVWDQFLGEINPQHSWMVAGPLLDIKAEPGAVEAVHLPHFVALQGGHVDTSLFQMAHFKEEGMLLEKPARVELHHIVLENPSFSRLGVLLKMIHNALRFIPVTSVVLLYHRVHPEEVTFHLYLIPSDCSIRKAIDDLEMKFQFVRIHKPPPLTPLYMGCRYTVSGSGSGMLEILPKELELCYRSPGEDQLFSEFYVGHLGSGIRLQVKDKKDETLVWEALVKPGDLMPATTLIPPARIAVPSPLDAP |  |  | 3.43 |
| NLRP1-FIIND (M1184V–P1214R) (domain or fragment, human, UniProt Q9C000 1064-1376, looked up, NLRP1 FIIND domain, human, residues 1064-1376 of isoform 1, M1184V and P1214R; they were combined here by mutagenesis; also called M1184V–P1214R double mutation; not shown: GST, N-terminal, cleaved) SQGDLHTKPLGTDDDFWGPTGPVATEVVDKEKNLYRVHFPVAGSYRWPNTGLCFVMREAVTVEIEFCVWDQFLGEINPQHSWMVAGPLLDIKAEPGAVEAVHLPHFVALQGGHVDTSLFQVAHFKEEGMLLEKPARVELHHIVLENPSFSRLGVLLKMIHNALRFIPVTSVVLLYHRVHPEEVTFHLYLIPSDCSIRKAIDDLEMKFQFVRIHKPPPLTPLYMGCRYTVSGSGSGMLEILPKELELCYRSPGEDQLFSEFYVGHLGSGIRLQVKDKKDETLVWEALVKPGDLMPATTLIPPARIAVPSPLDAP |  |  | 4.5 |
